{"source": "paper doi:10.1101/2025.10.03.680225", "key": {"[1]": {"molecular_target": "GAPDH-wt (UniProt P04406 1-335)", "sequence (P04406 whole entry)": "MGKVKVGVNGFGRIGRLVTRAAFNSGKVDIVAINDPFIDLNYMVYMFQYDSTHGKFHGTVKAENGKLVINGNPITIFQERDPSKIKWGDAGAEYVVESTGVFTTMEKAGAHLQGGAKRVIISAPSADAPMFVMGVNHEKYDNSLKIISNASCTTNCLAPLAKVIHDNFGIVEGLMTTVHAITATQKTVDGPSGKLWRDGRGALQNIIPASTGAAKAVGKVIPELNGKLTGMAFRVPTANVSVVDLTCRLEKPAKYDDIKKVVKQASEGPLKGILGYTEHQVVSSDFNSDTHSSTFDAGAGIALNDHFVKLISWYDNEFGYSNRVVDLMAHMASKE", "assay": "fluorescence anisotropy"}, "[2]": {"molecular_target": "GAPDH-K215E (UniProt P04406 1-335, K215E)", "sequence (P04406 whole entry K215E)": "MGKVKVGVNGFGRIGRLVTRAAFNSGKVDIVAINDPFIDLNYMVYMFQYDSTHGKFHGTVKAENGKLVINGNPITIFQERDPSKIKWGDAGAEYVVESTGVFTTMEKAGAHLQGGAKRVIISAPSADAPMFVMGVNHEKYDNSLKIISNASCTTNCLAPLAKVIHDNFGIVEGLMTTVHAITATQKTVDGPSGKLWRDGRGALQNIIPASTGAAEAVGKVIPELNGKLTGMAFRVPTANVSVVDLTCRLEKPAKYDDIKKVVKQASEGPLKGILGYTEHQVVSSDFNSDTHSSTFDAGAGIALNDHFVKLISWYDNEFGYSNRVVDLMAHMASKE", "assay": "fluorescence anisotropy"}}}
{"binder": "AAAAAAAAAAAAAAAAAAAA (ssRNA)", "note": "[20A-RNA]", "values": [{"measurement": "Kd", "setting": "[1]", "value": "0.132 ± 0.01", "unit": "µM"}, {"measurement": "Kd", "setting": "[2]", "value": "3.1 ± 0.217", "unit": "µM"}]}
